Experimental data reported in paper PMC4554727, “Flexible Structure of Peptide-Bound Filamin A Mechanosensor Domain Pair 20–21” (PLoS ONE, 2015).

Assays:
[1] = target: T1, IgFLNa20–21 (filamin A immunoglobulin-like domains 20–21, residues 2141–2329) (Homo sapiens (Human), UniProt P21333); test: SAXS
T1 chain: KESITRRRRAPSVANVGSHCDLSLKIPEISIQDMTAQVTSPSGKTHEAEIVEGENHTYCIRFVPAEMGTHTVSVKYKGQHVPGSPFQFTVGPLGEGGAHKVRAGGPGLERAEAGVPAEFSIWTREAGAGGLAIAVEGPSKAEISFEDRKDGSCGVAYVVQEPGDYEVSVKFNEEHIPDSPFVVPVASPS

[2] = target: T2, IgFLNaΔA20–21 (filamin A domains 20–21 lacking the first β strand of domain 20, residues 2151–2329) (Homo sapiens (Human), UniProt P21333); test: NMR HSQC titration, crystal structure
T2 chain: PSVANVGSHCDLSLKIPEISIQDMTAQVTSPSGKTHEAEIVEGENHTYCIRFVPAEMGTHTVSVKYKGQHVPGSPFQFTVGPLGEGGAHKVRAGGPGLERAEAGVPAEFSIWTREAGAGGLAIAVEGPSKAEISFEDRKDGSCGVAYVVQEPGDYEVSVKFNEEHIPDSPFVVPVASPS

[3] = target: T3, IgFLNa20–21 (filamin A immunoglobulin-like domains 20–21, residues 2141–2329) (UniProt P21333 2141-2329); test: SAXS; 277 K; 20 mM Tris pH 8.0, 100 mM NaCl, 10 mM DTT; 1–4 mg/ml IgFLNa20–21 or IgFLNa∆A20–21; two times molar excess of migfilin peptide where added; settings: both partners purified
T3 construct: Cloned into a modified pGEX vector; also called FLNa mechanosensor domain pair 20–21; source: E. coli BL21, purified (Glutathione Sepharose, TEV cleavage, size-exclusion chromatography)
T3 sequence (looked up): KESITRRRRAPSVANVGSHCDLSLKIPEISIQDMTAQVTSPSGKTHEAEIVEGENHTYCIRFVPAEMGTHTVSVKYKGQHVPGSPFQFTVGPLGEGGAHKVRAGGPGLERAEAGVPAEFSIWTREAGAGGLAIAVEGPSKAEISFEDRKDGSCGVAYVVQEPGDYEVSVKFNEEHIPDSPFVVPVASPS

[4] = target: T4, IgFLNaΔA20–21 (filamin A domains 20–21 lacking the first β strand of domain 20, residues 2151–2329) (UniProt P21333 2151-2329); test: as above; settings: both partners purified
T4 construct: filamin A (FLNa), Ig-like domains 20–21 without the A strand of domain 20 (2141–2150), residues 2151–2329; residues 2151–2235 form domain ΔA20 and 2236–2329 domain 21; 15N (and 13C) isotope-labelled for the NMR experiments; same construct; also called IgFLNa∆A20–21; IgFLNΔAa20–21; source: E. coli BL21, purified (Glutathione Sepharose, TEV cleavage, size-exclusion chromatography)
T4 sequence (looked up): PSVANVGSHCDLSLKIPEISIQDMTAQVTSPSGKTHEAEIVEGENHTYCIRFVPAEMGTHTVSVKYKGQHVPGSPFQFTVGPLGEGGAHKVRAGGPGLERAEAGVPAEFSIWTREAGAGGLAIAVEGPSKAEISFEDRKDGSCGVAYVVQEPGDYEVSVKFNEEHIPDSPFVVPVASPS

- binding result [1]: binds
- binding result [2]: binds
- binding result [3]: binds
- binding result [4]: binds
B1: migfilin peptide (residues 5–28) (peptide)
peptide: PEKRVASSVFITLAPPRRDVAVAE
notes: migfilin, residues 5–28; it is removed here; Only residues 6–20 are seen in the crystal structure; also called migfilin^5–28 peptide; migfilin-derived peptide; source: bought: EZBiolab (Westfield, IN)
